These results are taken from the RNAGym collection of RNA variant scans (doi:10.1073/pnas.2313332121).

B1: TPR t1 (parent)
chain: GACCAAUCUGCCCUCAGAGCUCGAGAACAUCUUCGGAUGCAGAGGAGGCAGGCUUCGGUGGCGCGAUAGCGCCAACGUCCUCAACCUCCAAUGCAUCCCACCACAUGAUGAUGCCUGAAGAGCCUUGGUUUUUUG

The variants in this data set derive from B1. Description: polymerase ribozyme fitness, log enrichment relative to wild type (log ratio); higher = more active; in vitro selection for triplet polymerase activity. The procedure, abridged:
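PCR was used to build mutant libraries for each subunit of a heterodimeric triplet polymerase ribozyme, which were then transcribed. A single in vitro selection round, in triplicate, used a frozen incubation at −7 °C and recovered extended constructs by gel excision, streptavidin beads and RT-PCR. Fitness is the logarithm of genotype enrichment relative to wild-type enrichment, averaged over replicates with inverse-variance weights. The logarithm is base 2, and after Illumina sequencing only genotypes with ≥10 input reads and ≥1 read per output were kept.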
As for GACCAAUCUGCCCUCAGAGCUGGAGAACAUCUUGGGAUGCAGAGGAGGCAGGCUUCGGUGGCGCGAUAGAGCCAACGUCCUCAACCUCCAAUGCAUCCCACCACAUGAUGAUGCCUGAAGAGACUUGGUUUUUUG [C22G C34G C70A C123A], the “polymerase ribozyme fitness (log ratio)” value was -6.39.

Take GACCAAUCUGCCCUCAGAGCUGGAGAAUAUCUUCGGUUGCAGAGGAGACAGGCUUCGGUGGCGCGAUAGCGCCAACGUCCUCAACCUCCAAUGCAUCCCACCACAUGAUCAUGCCUGAAGAGCCUUGGUUUUUUG [C22G C28U A37U G48A G110C]: the “polymerase ribozyme fitness (log ratio)” value was -3.85.

Regarding GACCAAUCUGCCCUCAGAGCUGGAGAACAUAUUCGGAUGCAGAGGAGGCAGGCUUCGGUGGCGCGAUAGCGCCAACGUCCUCAACCUCCAACGCAACCCACCACAUGAUGUUGCCUGAAGAGCCUUGGUUUUUUG [C22G C31A U92C U96A A111U], the “polymerase ribozyme fitness (log ratio)” value was -5.09.

Consider GACCAAUCUGCCCUCAGAGCUGGAGAACAUCUUCGGAUGCAGAGGAGGCGGGCUUCGGUGGCGCGAUAGCGCCAACGUCCUCAACCUCCAAUGCAUCCCACCACAUGAUGAUGCCUGAAGAGCCUUGGUUUUUUG [C22G A50G], for which the “polymerase ribozyme fitness (log ratio)” value was -3.5.

As to GACCAAUCUGCCCUCAGAGCUGGAGAACAUCUUCGGAUGAAGAGGAGGCAGGCUUCGGUGGCGCGAUAGCGCCAACGUCCUCAACCUCCAAUGCAUCCCACCACAUGAUGAUGCCUGAAGAGCCUUGGUUUUUUG [C22G C40A], the “polymerase ribozyme fitness (log ratio)” value is -4.68.

On to GACCAAUCUGCCCUCAGAGCUAGAGAACAUCUCCGGAUGCAGAGGAGGUAGGCUUCGGUGGCGCGAUAGCGCCAACGUACUCAACCUCCAAUGCAUCCCACCACAUGAUGAUGCCUGAAGAGGCUUGGUUUUUUG [C22A U33C C49U C79A C123G], for which the “polymerase ribozyme fitness (log ratio)” value is -7.05.

Take GACCAAUCUGCCCUCAGAGCUGGAGCACAUCUUCGGAUGCAGAGGAGGCAGGCUUCGGUGGCGCGAUAGCGCCAACGUCCUCAACCUCCAAUGCAUCCCACCACAUGAUUAUGCCUGAAGAGCCUUGGUUUUUUG [C22G A26C G110U]: the “polymerase ribozyme fitness (log ratio)” value was -6.02.

On to GACCAAUCUGCCCUCAGAGCUGGAGAACCUCUUCGGAUGCAGAGGAGGCAGGCUUCGGUGGCGCGAUAGCGCCAACGUCCUCACCCUCCAAUGCAUCCCACCACAUGAUGAUGCCUGAAGAGCCUUGGUUUUUUG [C22G A29C A84C], for which the “polymerase ribozyme fitness (log ratio)” value is -3.73.

As to GACCAAUCUGCCCUCAGAGCUGGAGAACAUCUUCGGAUGCAGAGGCGGCAGGCUUCGGUGGCGCGAUAGCGCCAACGUCCUCAACCUCCAAUGCAUCCCACCACAUGAUGAUGCCUGAAGAGCCUUGGUUUUUUG [C22G A46C], the “polymerase ribozyme fitness (log ratio)” value is -3.97.

Take GACCAAUCUGCCCUCAGAGCUGGAGAACAUCUUCGGAUGCAGUGGAGGCAGGCUUCGGUGGCGCGAUAGCGGCAACGUCCUCAACCUCCAAUGCAUCCCACCACAAGAUGAUGCAUGAAGAGCCUUGGUUUUUUG [C22G A43U C72G U106A C115A]: the “polymerase ribozyme fitness (log ratio)” value is -1.97.

Turning to GACCAAUCUGCCCUCAGAGCUGGAGAACAUCUUCGGAUGCAGAGGGGGCAGGCUUCGGUAGCGCGAUAGCGCCAACGUCCUCAACCUCCAAUGCAUCCCACCACAUGAUGAUGCCUGAAAAGCCUUGGUUUUUUG [C22G A46G G60A G120A], the “polymerase ribozyme fitness (log ratio)” value was -4.49.

Consider GACCAAUCUGCCCUCAGAGCUGGAGAACAUUUUCGGAUGCAGAGGAGGCACGCUUCGGUGGCGCGAUAGCGCCAACGUCCACAACCUCCAAUACAUCCCACCACAUGAUGAUGCCUGAAGAGUCUUGGUUUUUUG [C22G C31U G51C U81A G93A C123U], for which the “polymerase ribozyme fitness (log ratio)” value was -6.15.

As to GACCAAUCUGCCCUCAGAGCUGGAGAACCUCUUCGGAUGCAGAGGAGGCAGGCUUCGGUGGCGCGAUAGCGCCAACGUCCUCAACCUCAAAUGCAUCCCACCACAUGAUGAUGCCUGAACAGCCUUGGUUUUUUG [C22G A29C C89A G120C], the “polymerase ribozyme fitness (log ratio)” value is -6.79.

Take GACCAAUCUGCCCUCAGAGCUGGAGAACAUCUUCGGAUGCAGAGGGGGCAGGCUUCGGUGGCGCGAUAGCGCCAACGUCCUAAACCUCCAAUGCAUCCCACCACAUGAUGAUGCCUGAAGGGCCUUGGUUUUUUU [C22G A46G C82A A121G G135U]: the “polymerase ribozyme fitness (log ratio)” value is -2.94.

Take GACCAAUCUGCCCUCAGAGCUGGAGAACAUCUUCGGAUGCAGAGGAGGCAGGCUUCGGUGGCGCGAUAGCGCCCACGUCCUCAACCUCCAAUGCAUCCCACCACAUGAUGAUGCCUGAAGAGCCUUGGUUUUUUG [C22G A74C]: the “polymerase ribozyme fitness (log ratio)” value is -3.02.

Turning to GACCAAUCUGCCCUCAGAGCUAGAGAACAUCUUCGGAUGCAGAGGAGGCAGGCUUCGGUGGCGCGAUAGCGCCAACGUCCUCAACCUCCAAUGCAUCCCACCACAUGAUGAUGCCUGAAAAGCCUUGGUUUUUUG [C22A G120A], the “polymerase ribozyme fitness (log ratio)” value was -4.53.

As for GACCAAUCUGCCCUCAGAGCUGGAGAACAUCUUCGGAUGCAGAGGAGGAAGGCUUCGGUGGCGCGAUAGCGCCAACGUCCUCAACCUCCAAUGCAUCCCACCACAUGAUGAUGCCUGAAGAGCCUUAGGUUUUUG [C22G C49A G127A U129G], the “polymerase ribozyme fitness (log ratio)” value is -4.21.

For the variant GACCAAUCUGCCCUCAGAGCUGGAGAACAUCUUCGGAUGCAGAGGAGGCCGGCUUCGGUUGCGCGAUAGCGCCAACGUCCUCAACCUCCAAUGCAUCCCACCACAUGAUGAUGCAUGAAGAGCCUUGGUUUUUUG [C22G A50C G60U C115A], the “polymerase ribozyme fitness (log ratio)” value was -2.18.

In the case of GACCAAUCUGCCCUCAGAGCUGGAGAACAUCUUCGGAUGCAGAGGAGGCAGGCUUCGGUGGCGCGAUAGCGCCAACGUCCUCUACCUCGAAUGCAUCCCACCACAUGAUGAUGCCUGAAGGGCCUUGGUUUUUUG [C22G A83U C89G A121G], the “polymerase ribozyme fitness (log ratio)” value was -3.33.

On to GACCAAUCUGCCCUCAGAGCUAGAGAACAUCUUCGGAUGCAGAGGAGGCAGGCUUCGGUGGCGCGAUAGCGCCAACGCCCUCAACCUCCAAUGCAUCCCACCACAUGAUGAUGCCUGAAGAGCCUUGGUUUUUUG [C22A U78C], for which the “polymerase ribozyme fitness (log ratio)” value is -6.19.

As to GACCAAUCUGCCCUCAGAGCUAGAGAACAUCUUCGGAUGCAGAGGAGGCAGGCCUCGGUGGCGCGAUAGCGCCAACGUCCUCAACCUCCAAUGCAUCCCACCACAUGAUGAUGCCUGAAGAGCCUUGGUUUUUUG [C22A U54C], the “polymerase ribozyme fitness (log ratio)” value is -4.71.
